# In patent US20070197442A1, “Methods for the Treatment of Macular Degeneration and Related Eye Conditions” (priority 2006, published 2007):
# Tests used:
# LCAT = target: T1, LCAT (Homo sapiens, UniProt P04180); test: in vitro LCAT activation; type: biochemical; conditions: in the presence of lipids; % of the activity of native apoA-I
# T1 sequence (P04180 25-440): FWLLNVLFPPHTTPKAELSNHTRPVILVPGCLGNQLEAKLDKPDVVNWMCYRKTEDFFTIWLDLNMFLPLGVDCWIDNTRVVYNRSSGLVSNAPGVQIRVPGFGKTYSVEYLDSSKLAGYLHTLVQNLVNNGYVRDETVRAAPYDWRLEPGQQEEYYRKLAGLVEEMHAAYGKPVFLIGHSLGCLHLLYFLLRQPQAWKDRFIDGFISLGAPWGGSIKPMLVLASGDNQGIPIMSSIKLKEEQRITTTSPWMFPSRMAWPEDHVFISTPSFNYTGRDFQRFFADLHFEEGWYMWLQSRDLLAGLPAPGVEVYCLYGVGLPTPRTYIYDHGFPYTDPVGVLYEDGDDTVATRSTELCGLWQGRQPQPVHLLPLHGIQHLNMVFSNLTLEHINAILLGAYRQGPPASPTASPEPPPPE
# Description: ESP24218 (SEQ ID NO:1), the peptide component of the peptide/phospholipid complex, is a 22 amino acid peptide having a helical structure and amphipathic properties designed based on the helical repeats of apoA-I. In the presence of lipids, this peptide approaches 100% of the activity of native apoA-I in in vitro LCAT activation. The peptide can be prepared by chemical synthesis using any technique known to those of skill in the art. The peptide can be prepared by the synthetic techniques described in U.S. Pat. No. 6,004,925, incorporated herein by reference in its entirety for all purposes. Typically, ESP24218 (SEQ ID NO:1) is produced by a stepwise chemical synthesis on a solid support. In preferable embodiments, all amino acids in the peptide are natural L-α-amino acids in configuration. Generally, the amino and carboxyl termini of the peptide are free. The amino acid sequence of ESP24218 (SEQ ID NO:1) is shown in FIG. 1, which is as follows: H-[…]OH. The phospholipid can be obtained from any source known to those of skill in the art. […]
# [1] = test system: apo E expression in HepG2 cells; conditions: cited from earlier work
activity in in vitro LCAT activation relative to native apoA-I (LCAT) [%],Substance,increase of expression of apo E [1]
~100,H-Pro-Val-Leu-Asp-Leu-Phe-Arg-Glu-Leu-Leu-Asn-Glu-Leu-Leu-Glu-Ala-Leu-Lys-Gln-Lys-Leu-Lys-OH [ESP24218],–
–,Thyroid hormone,three
